In article doi:10.1101/2022.12.03.518949 (bioRxiv, 2022):

Molecular target: His-tagged SARS-CoV-2 RBD (SARS-CoV-2 Wuhan-Hu-1, UniProt P0DTC2)
Test: BLI

B1: Fab fragment of THSC20.HVTR26 (Fab, V domains shown)
VH: EVQLVESGGGLVQPGGSLRLSCAASGFTVSSNYMSWVRQAPGKGLEWVSAIYSGDSTYYADSVKGRFTISRHNPKNTLYLQMNSLRAEDTAVYYCARLVGALTNIVVSGDGGAFDIWGQGTMVTVSS
VL: SYELTQPASVSGSPGQSITISCTGTSSDVGSYNLVSWYQQHPGKAPKLMIYEVSKRPSGVSNRFSGSKSGNTASLTISGLQAEDEVDYYCCSYAGSSTWVFGGGTKLTVL
binding result: binds
